Reference: patent US20090203610A1, “METHODS OF TREATING OBESITY OR DIABETES USING NT-4/5” (RINAT NEUROSCIENCE CORPORATION, priority 2004, published 2009)

Assays:
Assay type in all cases: in vivo
db/db mice = assay: Dose response of NT-4/5 on body weight and percentage change in body weight of db/db mice (Example 2, Tables 16, 17); parameters: body weight: unit not given here; conditions: for body weight / percentage change in body weight: db/db mice, 12 week, female, mean
Description: Db/db mice maintained as described in Example 1 were divided into five groups (groups 1-5). Group 1 (7 mice) were administered with vehicle (PBS). Group 2 (7 mice), group 3 (8 mice), group 4 (8 mice), group 5 (8 mice) were each administered with NT-4/5 at the doses of 2 mg/kg, 5 mg/kg, 10 mg/kg, and 20 mg/kg, respectively. Both the vehicle and NT-4/5 were administered to each group of the mice subcutaneously once daily for five days. One day before beginning the treatment (T0), blood samples were collected from the mice as described previously for the determination of baseline levels of serum biomarkers (glucose, triglyceride, and cholesterol). Similarly, at day 6 (T6), blood samples were collected for the determination of serum biomarker levels. The blood samples were treated in the same manner as described in Example 1.
From two days before the treatment (T-1) to day 6 (T6), individual food intakes of the mice were measured daily. Individual body weights were also measured daily from 6 days before the treatment (T-5) to day 7 (T7).

[1] = system: NONcNZO-10 polygenic obese mice; assay: Non-fasting blood triglyceride level in NONcNZO-10 mice (Example 4, Table 18)
Excerpt: Test animals: 40 male NONcNZO-10 polygenic obese mice obtained from Jackson Laboratory at 10 weeks of age weighing in the range of 26-32 g were used in this study.
Administration of NT-4/5: NT-4/5 was produced in E. coli as descried in U.S. Pat. No. 6,184,360. The mice were divided into 6 groups of equivalent body weight and baseline blood glucose distribution (6-7 mice per group). […] A “paired-fed” control group received daily injection of vehicle, but were only fed with the same amount of food the 3 mg/kg group consumed the previous day. On the day when the treatment started (day 1), a baseline blood samples were collected for measuring glucose and triglyceride. Triglyceride level was measured on day 10. At the end of the study (day 12), a terminal blood sample was collected to determine glucose, triglyceride, electrolytes (Na, K, Cl), testoterone, corticosterone, thyroid hormone (total T4) and thyroid stimulating hormone (TSH) levels. Electrolytes, free testosterone, T4 and TSH levels of serum samples were measured by AniLytics (Gaithesburg, M.D) according to the standard protocols employed by the vendor. Other analytes were measured as described above. Body weight, food intake were monitored 5 days per week through out the entire study. Daily water intake was measured from day 5 through day 7.

DIO mice = assay: NT-4/5 versus BDNF on body weight and food intake of DIO mice (Example 10)
Excerpt: Test animals: Mice with diet induced obesity (DIO) were used in this study. 22 male C57BL/6J mice were weaned at 4 weeks of age. Immediately after weaning they were put on 58% high fat diet (D12331i, Research Diet) through out the study. The DIO mice at 13 weeks of age weighing in the range of 28-40 g were used in this study.
Administration of NT-4/5 and BDNF: NT-4/5 was produced was produced as described in U.S. Pat. No. 6,184,360. The recombinant human BDNF was obtained from PeproTech Inc. (Rocky Hill, N.J.).
The mice were divided into 3 groups of equivalent body weight distribution (7-8 mice per group). Each group received 2 weekly intravenous doses of either vehicle, 2 mg/kg of NT-4/5 or 2 mg/kg of BDNF, respectively. Body weight and food intake were taken the day before treatment started (day 0) and followed subsequently on a daily basis.

db/db female mice = assay: Survival time in db/db mice (Example 12)
Description: Db/db female mice maintained as described in Example 1 were divided into two groups. Group 1 (8 mice) were administered with vehicle (PBS). Group 2 (6 mice) was each administered with NT-4/5 at the doses of 20 mg/kg. Both the vehicle and NT-4/5 were administered subcutaneously once daily from day 1 to day 26, and were then followed up for survival. Mortality is defined by the body wasting below 60% of the starting body weight (i.e., from about 40 g down to about 24 g) or natural death, whichever happened first.

[2] = weekly intravenous injection, 2 mg/kg

B1: NT-4/5: mature human neurotrophin-4/5 (SEQ ID NO:1), obtained from Genentech or produced in E. coli (protein, listed as Homo sapiens)
chain: GVSETAPASRRGELAVCDAVSGWVTDRRTAVDLRGREVEVLGEVPAAGGSPLRQYFFETRCKADNAEEGGPGAGGGGCRGVDRRHWVSECKAKQSYVRALTADAQGRVGWRWIRIDTACVCTLLSRTGRA
body weight as compared to vehicle (db/db mice; 2, 5, 10 and 20 mg/kg): significantly decreased body weight | body weight (db/db mice; NT-4/5 2 mg/kg, Day 1): 39.66 | percentage change in body weight (db/db mice; NT-4/5 2 mg/kg, Day 1): 101.83% | body weight (db/db mice; NT-4/5 2 mg/kg, Day 3): 38.96 | percentage change in body weight (db/db mice; NT-4/5 2 mg/kg, Day 3): 98.27% | body weight (db/db mice; NT-4/5 2 mg/kg, Day 5): 38.17 | percentage change in body weight (db/db mice; NT-4/5 2 mg/kg, Day 5): 96.24% | body weight (db/db mice; NT-4/5 2 mg/kg, Day 7): 37.50 | percentage change in body weight (db/db mice; NT-4/5 2 mg/kg, Day 7): 94.57% | body weight (db/db mice; NT-4/5 2 mg/kg, Day −1): 38.94 | body weight (db/db mice; NT-4/5 5 mg/kg, Day 1): 41.03 | percentage change in body weight (db/db mice; NT-4/5 5 mg/kg, Day 1): 101.51% | body weight (db/db mice; NT-4/5 5 mg/kg, Day 3): 39.26 | percentage change in body weight (db/db mice; NT-4/5 5 mg/kg, Day 3): 95.71% | body weight (db/db mice; NT-4/5 5 mg/kg, Day 5): 38.48 | percentage change in body weight (db/db mice; NT-4/5 5 mg/kg, Day 5): 93.79% | body weight (db/db mice; NT-4/5 5 mg/kg, Day 7): 37.00 | percentage change in body weight (db/db mice; NT-4/5 5 mg/kg, Day 7): 90.15% | body weight (db/db mice; NT-4/5 5 mg/kg, Day −1): 40.41 | body weight (db/db mice; NT-4/5 10 mg/kg, Day 1): 39.99 | percentage change in body weight (db/db mice; NT-4/5 10 mg/kg, Day 1): 101.07% | body weight (db/db mice; NT-4/5 10 mg/kg, Day 3): 38.49 | percentage change in body weight (db/db mice; NT-4/5 10 mg/kg, Day 3): 96.28% | body weight (db/db mice; NT-4/5 10 mg/kg, Day 5): 37.35 | percentage change in body weight (db/db mice; NT-4/5 10 mg/kg, Day 5): 93.43% | body weight (db/db mice; NT-4/5 10 mg/kg, Day 7): 36.04 | percentage change in body weight (db/db mice; NT-4/5 10 mg/kg, Day 7): 90.14% | body weight (db/db mice; NT-4/5 10 mg/kg, Day −1): 39.58 | body weight (db/db mice; NT-4/5 20 mg/kg, Day 1): 40.73 | percentage change in body weight (db/db mice; NT-4/5 20 mg/kg, Day 1): 100.31% | body weight (db/db mice; NT-4/5 20 mg/kg, Day 3): 39.10 | percentage change in body weight (db/db mice; NT-4/5 20 mg/kg, Day 3): 96.01% | body weight (db/db mice; NT-4/5 20 mg/kg, Day 5): 37.71 | percentage change in body weight (db/db mice; NT-4/5 20 mg/kg, Day 5): 92.60% | body weight (db/db mice; NT-4/5 20 mg/kg, Day 7): 36.00 | percentage change in body weight (db/db mice; NT-4/5 20 mg/kg, Day 7): 88.38% | body weight (db/db mice; NT-4/5 20 mg/kg, Day −1): 40.60 | non-fasting blood triglyceride levels ([1]; daily subcutaneous injection): significantly reduced | non-fasting blood triglyceride level ([1]; lowest dose 0.1 mg/kg/day s.c.): significantly reduced | body weight on day 2 (DIO mice; 2 mg/kg i.v.): reduced body weight significantly | food intake on day 2 (DIO mice; 2 mg/kg i.v.): reduced food intake significantly | body weight (DIO mice; [2]): reduced the body weight more effectively than that of BDNF | food intake (DIO mice; [2]): reduced the food intake more effectively than that of BDNF | median length of survival (db/db female mice; 20 mg/kg s.c. daily day 1 to 26, n=6): 257 days | difference in median survival versus vehicle control (db/db female mice; vehicle 192.5 days, not statistically significant (P=0.1331)): 65 days
